One assay has as its target T1, HLA-B*07:02 (human).
T1 construct: Peptide-receptive MHC class I monomer made by UV cleavage of a UV-sensitive ligand
The experiment in a line: UV ligand exchange ELISA; exchange yield grade. An excerpt: (§1) Candidate peptides for T cell based therapies according to the present invention were further tested for their MHC binding capacity (affinity). The individual peptide-MHC complexes were produced by UV-ligand exchange, where a UV-sensitive peptide is cleaved upon UV-irradiation, and exchanged with the peptide of interest as analyzed. Only peptide candidates that can effectively bind and stabilize the peptide-receptive MHC molecules prevent dissociation of the MHC complexes. To determine the yield of the exchange reaction, an ELISA was performed based on the detection of the light chain (β2m) of stabilized MHC complexes. The assay was performed as generally described in Rodenko et al. (Rodenko et al., 2006).
(§2) 96 well MAXISorp plates (NUNC) were coated over night with 2 ug/ml streptavidin in PBS at room temperature, washed 4× and blocked for 1 h at 37° C. in 2% BSA containing blocking buffer. Refolded HLA-A*02:01/MLA-001 monomers served as standards, covering the range of 15-500 ng/ml. Peptide-MHC monomers of the UV-exchange reaction were diluted 100-fold in blocking buffer. Samples were incubated for 1 h at 37° C., washed four times, incubated with 2 ug/ml HRP conjugated anti-β2m for 1 h at 37° C., washed again and detected with TMB solution that is stopped with […]. Absorption was measured at 450 nm. Candidate peptides that show a high exchange yield (preferably higher than 50%, most preferred higher than 75%) are generally preferred for a generation and production of antibodies or fragments thereof, and/or T cell receptors or fragments thereof, as they show sufficient avidity to the MHC molecules and prevent dissociation of the MHC complexes.
On the technique in general: In an ELISA, binding on a coated surface is turned into a signal by an enzyme label.

Another assay deals with T2, HLA-B*44:02 (human).
T2 construct: Peptide-receptive MHC class I monomer made by UV cleavage of a UV-sensitive ligand
The experiment in a line: UV ligand exchange ELISA; exchange yield grade.
Source text: as §1, §2

Some results are limits rather than exact numbers.

B1: FPETVNNLL (peptide)
peptide: FPETVNNLL
As to B1, the peptide exchange yield in the assay with HLA-B*07:02 was 20 to 50%.

B2: KPKAAKPKA (peptide)
peptide: KPKAAKPKA
The molecule B2 displayed a peptide exchange yield in the assay with HLA-B*07:02 of 20 to 50%.

B3: APINKAGSFL (peptide)
peptide: APINKAGSFL
On to B3, for which, in the assay with HLA-B*07:02, the peptide exchange yield was more than 75%.

B4: LPARFYQAL (peptide)
peptide: LPARFYQAL
Turning to B4, the peptide exchange yield with HLA-B*07:02 was more than 75%.

B5: EEGNLLRSW (peptide)
peptide: EEGNLLRSW
Take B5: the peptide exchange yield in the assay with HLA-B*44:02 was in the range of 50 to 75%.

B6: EENTLVQNY (peptide)
peptide: EENTLVQNY
In the assay with HLA-B*44:02, B6 registered a peptide exchange yield of 20 to 50%.

B7: RPRGLALVL (peptide)
peptide: RPRGLALVL
B7 came in with a peptide exchange yield with HLA-B*07:02 of 50 to 75%.

B8: APFGFLGMQSL (peptide)
peptide: APFGFLGMQSL
In turn, B8 showed a peptide exchange yield with HLA-B*07:02 of 50 to 75%.

B9: GEAVTDHPDRLW (peptide)
peptide: GEAVTDHPDRLW
The molecule B9 registered a peptide exchange yield in the assay with HLA-B*44:02 of 50 to 75%.

B10: FPAPILRAV (peptide)
peptide: FPAPILRAV
B10 returned a peptide exchange yield in the assay with HLA-B*07:02 of 50 to 75%.

B11: KPKKAPKSPA (peptide)
peptide: KPKKAPKSPA
In the assay with HLA-B*07:02, B11 registered a peptide exchange yield of 50 to 75%.

B12: YLNRHLHTW (peptide)
peptide: YLNRHLHTW
The molecule B12 registered a peptide exchange yield with HLA-B*07:02 of 20 to 50%.

B13: AESEDLAVHLY (peptide)
peptide: AESEDLAVHLY
In the assay with HLA-B*44:02, B13 registered a peptide exchange yield of 20 to 50%.

B14: KPLFKVSTF (peptide)
peptide: KPLFKVSTF
In the case of B14, in the assay with HLA-B*07:02, the peptide exchange yield lay in the range of 20 to 50%.

B15: IPVSHPVL (peptide)
peptide: IPVSHPVL
B15: in the assay with HLA-B*07:02, the peptide exchange yield lay within 20 to 50%.

B16: IPASHPVL (peptide)
peptide: IPASHPVL
B16 showed a peptide exchange yield with HLA-B*07:02 of 20 to 50%.

B17: KEKFPINGW (peptide)
peptide: KEKFPINGW
In turn, B17 displayed a peptide exchange yield in the assay with HLA-B*44:02 of 50 to 75%.

B18: KAKKPAGAA (peptide)
peptide: KAKKPAGAA
B18 gave a peptide exchange yield with HLA-B*07:02 of 20 to 50%.

B19: SPRITFPSL (peptide)
peptide: SPRITFPSL
As for B19, the peptide exchange yield with HLA-B*07:02 is more than 75%.

B20: TENPLTKLL (peptide)
peptide: TENPLTKLL
Consider B20, for which the peptide exchange yield with HLA-B*44:02 is more than 75%.

B21: YPIALTRAEM (peptide)
peptide: YPIALTRAEM
The molecule B21 registered a peptide exchange yield in the assay with HLA-B*07:02 of 50 to 75%.

B22: GESQDSTTAL (peptide)
peptide: GESQDSTTAL
As for B22, the peptide exchange yield with HLA-B*44:02 lay within 20 to 50%.

B23: IPVSRPIL (peptide)
peptide: IPVSRPIL
B23: the peptide exchange yield in the assay with HLA-B*07:02 was in the range of 50 to 75%.

B24: KEFELRSSW (peptide)
peptide: KEFELRSSW
B24: the peptide exchange yield with HLA-B*44:02 was 50 to 75%.

B25: AEIEIVKEEF (peptide)
peptide: AEIEIVKEEF
For B25, in the assay with HLA-B*44:02, the peptide exchange yield was in the range of 20 to 50%.

B26: AEIGEGAYGKVF (peptide)
peptide: AEIGEGAYGKVF
On to B26, for which the peptide exchange yield in the assay with HLA-B*44:02 was 50 to 75%.

B27: RPNGNSLFTSA (peptide)
peptide: RPNGNSLFTSA
As for B27, the peptide exchange yield with HLA-B*07:02 fell in the range of 50 to 75%.

B28: NEQKIVRF (peptide)
peptide: NEQKIVRF
The molecule B28 displayed a peptide exchange yield with HLA-B*44:02 of 10 to 20%.

B29: SEDHSGSYW (peptide)
peptide: SEDHSGSYW
B29 displayed a peptide exchange yield in the assay with HLA-B*44:02 of 50 to 75%.

B30: LPLSMEAKI (peptide)
peptide: LPLSMEAKI
In turn, B30 displayed a peptide exchange yield in the assay with HLA-B*07:02 of 20 to 50%.

B31: SPRAINNLVL (peptide)
peptide: SPRAINNLVL
Turning to B31, the peptide exchange yield with HLA-B*07:02 is more than 75%.

B32: QEVDASIFKAW (peptide)
peptide: QEVDASIFKAW
The molecule B32 came in with a peptide exchange yield in the assay with HLA-B*44:02 of 50 to 75%.

B33: RMPPFTQAF (peptide)
peptide: RMPPFTQAF
B33: in the assay with HLA-B*44:02, the peptide exchange yield lay within 20 to 50%.

B34: LPFGKIPIL (peptide)
peptide: LPFGKIPIL
For B34, the peptide exchange yield in the assay with HLA-B*07:02 fell in the range of 20 to 50%.

B35: IPANTEKASF (peptide)
peptide: IPANTEKASF
In the case of B35, the peptide exchange yield with HLA-B*07:02 lay in the range of 20 to 50%.

B36: KARKSAGAA (peptide)
peptide: KARKSAGAA
As for B36, in the assay with HLA-B*07:02, the peptide exchange yield fell in the range of 50 to 75%.

B37: EELFRDGVNW (peptide)
peptide: EELFRDGVNW
B37 gave a peptide exchange yield in the assay with HLA-B*44:02 of 50 to 75%.

B38: YPYQERVFL (peptide)
peptide: YPYQERVFL
In turn, B38 returned a peptide exchange yield in the assay with HLA-B*07:02 of 20 to 50%.

B39: QENQAETHAW (peptide)
peptide: QENQAETHAW
Consider B39, for which the peptide exchange yield with HLA-B*44:02 was in the range of 50 to 75%.

B40: KPKAAKPKAA (peptide)
peptide: KPKAAKPKAA
Molecule B40 had a peptide exchange yield with HLA-B*07:02 of 20 to 50%.

B41: KPKAAKPKTA (peptide)
peptide: KPKAAKPKTA
Regarding B41, the peptide exchange yield with HLA-B*07:02 lay within 20 to 50%.

B42: SPKLQIAAM (peptide)
peptide: SPKLQIAAM
B42: in the assay with HLA-B*07:02, the peptide exchange yield is 50 to 75%.

B43: AESEDLAVHL (peptide)
peptide: AESEDLAVHL
For B43, the peptide exchange yield with HLA-B*44:02 lay in the range of 20 to 50%.

B44: KEFFFVKVF (peptide)
peptide: KEFFFVKVF
B44 came in with a peptide exchange yield with HLA-B*44:02 of 50 to 75%.

B45: RPMTPTQIGPSL (peptide)
peptide: RPMTPTQIGPSL
As to B45, the peptide exchange yield with HLA-B*07:02 lay in the range of 50 to 75%.

B46: MPDPHLYHQM (peptide)
peptide: MPDPHLYHQM
B46 had a peptide exchange yield with HLA-B*07:02 of 20 to 50%.

B47: SDAQRPSSF (peptide)
peptide: SDAQRPSSF
On to B47, for which the peptide exchange yield in the assay with HLA-B*44:02 lay within 10 to 20%.

B48: KPKAAKPKKAAA (peptide)
peptide: KPKAAKPKKAAA
In the assay with HLA-B*07:02, B48 gave a peptide exchange yield of 20 to 50%.

B49: NEIEHIPVW (peptide)
peptide: NEIEHIPVW
For the molecule B49, the peptide exchange yield with HLA-B*44:02 is 50 to 75%.

B50: NPLTKLLAI (peptide)
peptide: NPLTKLLAI
B50: the peptide exchange yield with HLA-B*07:02 lay within 50 to 75%.

B51: SEGDNVESW (peptide)
peptide: SEGDNVESW
In the assay with HLA-B*44:02, B51 had a peptide exchange yield of 50 to 75%.

B52: NEDKGTKAW (peptide)
peptide: NEDKGTKAW
Take B52: in the assay with HLA-B*44:02, the peptide exchange yield was in the range of 20 to 50%.

B53: SPVPSHWMVA (peptide)
peptide: SPVPSHWMVA
B53: the peptide exchange yield in the assay with HLA-B*07:02 fell in the range of 50 to 75%.

B54: NPRYPNYMF (peptide)
peptide: NPRYPNYMF
With B54, the peptide exchange yield with HLA-B*07:02 was in the range of 50 to 75%.

B55: EEEGNLLRSW (peptide)
peptide: EEEGNLLRSW
With B55, the peptide exchange yield in the assay with HLA-B*44:02 fell in the range of 50 to 75%.

B56: REAGFQVKAY (peptide)
peptide: REAGFQVKAY
In the assay with HLA-B*44:02, B56 yielded a peptide exchange yield of 50 to 75%.

B57: SESPWLHAPSL (peptide)
peptide: SESPWLHAPSL
B57 came in with a peptide exchange yield in the assay with HLA-B*07:02 of 50 to 75%.

B58: KAFKWFSAL (peptide)
peptide: KAFKWFSAL
In the case of B58, the peptide exchange yield with HLA-B*07:02 was in the range of 20 to 50%.

B59: KELEDLNKW (peptide)
peptide: KELEDLNKW
On to B59, for which the peptide exchange yield with HLA-B*44:02 is 50 to 75%.

B60: VDASIFKAW (peptide)
peptide: VDASIFKAW
In the assay with HLA-B*44:02, B60 came in with a peptide exchange yield of 20 to 50%.

These data come from patent publication US20180291083A1 (IMMATICS BIOTECHNOLOGIES, published 2018).
